T1: EsCas13d, nuclease-dead (Eubacterium siraeum, UniProt B0MS50, R295A;H300A;R849A;H854A)
T1 sequence: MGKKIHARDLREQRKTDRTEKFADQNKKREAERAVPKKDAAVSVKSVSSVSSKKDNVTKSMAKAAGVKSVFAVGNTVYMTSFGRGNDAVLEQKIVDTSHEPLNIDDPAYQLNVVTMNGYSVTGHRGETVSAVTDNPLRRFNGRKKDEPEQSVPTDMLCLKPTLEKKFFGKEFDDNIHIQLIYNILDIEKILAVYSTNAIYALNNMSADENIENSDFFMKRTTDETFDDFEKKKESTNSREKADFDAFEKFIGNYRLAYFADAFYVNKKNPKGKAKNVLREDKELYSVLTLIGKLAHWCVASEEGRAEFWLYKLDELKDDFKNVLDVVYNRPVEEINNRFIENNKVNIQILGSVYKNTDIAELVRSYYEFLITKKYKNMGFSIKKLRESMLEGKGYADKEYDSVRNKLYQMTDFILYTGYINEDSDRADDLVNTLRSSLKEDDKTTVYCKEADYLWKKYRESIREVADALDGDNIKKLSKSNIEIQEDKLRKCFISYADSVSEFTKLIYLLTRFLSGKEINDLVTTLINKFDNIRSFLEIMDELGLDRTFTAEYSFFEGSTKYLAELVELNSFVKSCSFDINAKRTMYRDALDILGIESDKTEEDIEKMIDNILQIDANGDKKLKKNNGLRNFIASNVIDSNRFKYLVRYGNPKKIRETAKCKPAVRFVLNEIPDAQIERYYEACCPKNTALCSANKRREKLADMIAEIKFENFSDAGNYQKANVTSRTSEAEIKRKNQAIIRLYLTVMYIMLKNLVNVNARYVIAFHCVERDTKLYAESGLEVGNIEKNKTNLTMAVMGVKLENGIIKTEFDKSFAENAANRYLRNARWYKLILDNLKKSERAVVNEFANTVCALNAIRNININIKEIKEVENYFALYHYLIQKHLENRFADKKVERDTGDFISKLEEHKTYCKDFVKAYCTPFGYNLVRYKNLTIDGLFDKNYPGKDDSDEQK

B1: target 1 insA 3' of 10,insU 3' of 7 (mixed)
RNA 1: CACCCGUGCAAAAAUGCAGGGGUCUAAAACUGAGCGGAUAACCUCUCUAUGG
RNA 2: GGGAAUGGAUCCACAUCUACGAAUUCGUACCAUAGAGAGGUUAAUCUCGCUCACCGAGAUCGGAAGAGCACACGU
B2: target 1 insU 3' of 14,insA 3' of 6 (mixed)
RNA 1: CACCCGUGCAAAAAUGCAGGGGUCUAAAACUGAGCGGAUAACCUCUCUAUGG
RNA 2: GGGAAUGGAUCCACAUCUACGAAUUCGUACCAUAGAGAUGGUUAUCCAGCUCACCGAGAUCGGAAGAGCACACGU
B3: target 1 A9U,A18U (mixed)
RNA 1: CACCCGUGCAAAAAUGCAGGGGUCUAAAACUGAGCGGAUAACCUCUCUAUGG
RNA 2: GGGAAUGGAUCCACAUCUACGAAUUCGUACCAUUGAGAGGUUUUCCGCUCACCGAGAUCGGAAGAGCACACGU
B4: target 1 insA 3' of 3,insA 3' of 2 (mixed)
RNA 1: CACCCGUGCAAAAAUGCAGGGGUCUAAAACUGAGCGGAUAACCUCUCUAUGG
RNA 2: GGGAAUGGAUCCACAUCUACGAAUUCGUACCAUAGAGAGGUUAUCCGCUACAACCGAGAUCGGAAGAGCACACGU
B5: target 1 C4U,U10C (mixed)
RNA 1: CACCCGUGCAAAAAUGCAGGGGUCUAAAACUGAGCGGAUAACCUCUCUAUGG
RNA 2: GGGAAUGGAUCCACAUCUACGAAUUCGUACCAUAGAGAGGUCAUCCGUUCACCGAGAUCGGAAGAGCACACGU
B6: target 1 insC 3' of 5,insU 3' of 2 (mixed)
RNA 1: CACCCGUGCAAAAAUGCAGGGGUCUAAAACUGAGCGGAUAACCUCUCUAUGG
RNA 2: GGGAAUGGAUCCACAUCUACGAAUUCGUACCAUAGAGAGGUUAUCCGCCUCUACCGAGAUCGGAAGAGCACACGU
B7: target 1 G12A,A18C (mixed)
RNA 1: CACCCGUGCAAAAAUGCAGGGGUCUAAAACUGAGCGGAUAACCUCUCUAUGG
RNA 2: GGGAAUGGAUCCACAUCUACGAAUUCGUACCAUCGAGAGAUUAUCCGCUCACCGAGAUCGGAAGAGCACACGU
B8: target 1 insU 3' of 6,insG 3' of 2 (mixed)
RNA 1: CACCCGUGCAAAAAUGCAGGGGUCUAAAACUGAGCGGAUAACCUCUCUAUGG
RNA 2: GGGAAUGGAUCCACAUCUACGAAUUCGUACCAUAGAGAGGUUAUCCUGCUCGACCGAGAUCGGAAGAGCACACGU
B9: target 1 C2G,C21U (mixed)
RNA 1: CACCCGUGCAAAAAUGCAGGGGUCUAAAACUGAGCGGAUAACCUCUCUAUGG
RNA 2: GGGAAUGGAUCCACAUCUACGAAUUCGUACUAUAGAGAGGUUAUCCGCUGACCGAGAUCGGAAGAGCACACGU
B10: target 1 insU 3' of 17,insU 3' of 6 (mixed)
RNA 1: CACCCGUGCAAAAAUGCAGGGGUCUAAAACUGAGCGGAUAACCUCUCUAUGG
RNA 2: GGGAAUGGAUCCACAUCUACGAAUUCGUACCAUAGUAGAGGUUAUCCUGCUCACCGAGAUCGGAAGAGCACACGU
B11: target 1 A9C,C21U (mixed)
RNA 1: CACCCGUGCAAAAAUGCAGGGGUCUAAAACUGAGCGGAUAACCUCUCUAUGG
RNA 2: GGGAAUGGAUCCACAUCUACGAAUUCGUACUAUAGAGAGGUUCUCCGCUCACCGAGAUCGGAAGAGCACACGU
B12: target 1 U8G,G12C (mixed)
RNA 1: CACCCGUGCAAAAAUGCAGGGGUCUAAAACUGAGCGGAUAACCUCUCUAUGG
RNA 2: GGGAAUGGAUCCACAUCUACGAAUUCGUACCAUAGAGAGCUUAGCCGCUCACCGAGAUCGGAAGAGCACACGU
B13: target 1 U3A,A14C (mixed)
RNA 1: CACCCGUGCAAAAAUGCAGGGGUCUAAAACUGAGCGGAUAACCUCUCUAUGG
RNA 2: GGGAAUGGAUCCACAUCUACGAAUUCGUACCAUAGAGCGGUUAUCCGCACACCGAGAUCGGAAGAGCACACGU
B14: target 1 insU 3' of 15,insU 3' of 4 (mixed)
RNA 1: CACCCGUGCAAAAAUGCAGGGGUCUAAAACUGAGCGGAUAACCUCUCUAUGG
RNA 2: GGGAAUGGAUCCACAUCUACGAAUUCGUACCAUAGAGUAGGUUAUCCGCUUCACCGAGAUCGGAAGAGCACACGU
B15: target 1 U11C,U19C (mixed)
RNA 1: CACCCGUGCAAAAAUGCAGGGGUCUAAAACUGAGCGGAUAACCUCUCUAUGG
RNA 2: GGGAAUGGAUCCACAUCUACGAAUUCGUACCACAGAGAGGCUAUCCGCUCACCGAGAUCGGAAGAGCACACGU
B16: target 1 insC 3' of 15,insC 3' of 13 (mixed)
RNA 1: CACCCGUGCAAAAAUGCAGGGGUCUAAAACUGAGCGGAUAACCUCUCUAUGG
RNA 2: GGGAAUGGAUCCACAUCUACGAAUUCGUACCAUAGAGCAGCGUUAUCCGCUCACCGAGAUCGGAAGAGCACACGU
B17: target 1 insA 3' of 12,insA 3' of 2 (mixed)
RNA 1: CACCCGUGCAAAAAUGCAGGGGUCUAAAACUGAGCGGAUAACCUCUCUAUGG
RNA 2: GGGAAUGGAUCCACAUCUACGAAUUCGUACCAUAGAGAGGAUUAUCCGCUCAACCGAGAUCGGAAGAGCACACGU
B18: target 1 insC 3' of 22,insG 3' of 22 (mixed)
RNA 1: CACCCGUGCAAAAAUGCAGGGGUCUAAAACUGAGCGGAUAACCUCUCUAUGG
RNA 2: GGGAAUGGAUCCACAUCUACGAAUUCGUACCGCAUAGAGAGGUUAUCCGCUCACCGAGAUCGGAAGAGCACACGU
B19: target 1 insG 3' of 7,insU 3' of 7 (mixed)
RNA 1: CACCCGUGCAAAAAUGCAGGGGUCUAAAACUGAGCGGAUAACCUCUCUAUGG
RNA 2: GGGAAUGGAUCCACAUCUACGAAUUCGUACCAUAGAGAGGUUAUCGUCGCUCACCGAGAUCGGAAGAGCACACGU
B20: target 1 C2G,G12A (mixed)
RNA 1: CACCCGUGCAAAAAUGCAGGGGUCUAAAACUGAGCGGAUAACCUCUCUAUGG
RNA 2: GGGAAUGGAUCCACAUCUACGAAUUCGUACCAUAGAGAGAUUAUCCGCUGACCGAGAUCGGAAGAGCACACGU
B21: target 1 insA 3' of 11,insA 3' of 6 (mixed)
RNA 1: CACCCGUGCAAAAAUGCAGGGGUCUAAAACUGAGCGGAUAACCUCUCUAUGG
RNA 2: GGGAAUGGAUCCACAUCUACGAAUUCGUACCAUAGAGAGGUAUAUCCAGCUCACCGAGAUCGGAAGAGCACACGU
B22: target 1 insU 3' of 4,insG 3' of 1 (mixed)
RNA 1: CACCCGUGCAAAAAUGCAGGGGUCUAAAACUGAGCGGAUAACCUCUCUAUGG
RNA 2: GGGAAUGGAUCCACAUCUACGAAUUCGUACCAUAGAGAGGUUAUCCGCUUCAGCCGAGAUCGGAAGAGCACACGU
B23: target 1 insA 3' of 12,insG 3' of 1 (mixed)
RNA 1: CACCCGUGCAAAAAUGCAGGGGUCUAAAACUGAGCGGAUAACCUCUCUAUGG
RNA 2: GGGAAUGGAUCCACAUCUACGAAUUCGUACCAUAGAGAGGAUUAUCCGCUCAGCCGAGAUCGGAAGAGCACACGU
B24: target 1 insA 3' of 13,insC 3' of 13 (mixed)
RNA 1: CACCCGUGCAAAAAUGCAGGGGUCUAAAACUGAGCGGAUAACCUCUCUAUGG
RNA 2: GGGAAUGGAUCCACAUCUACGAAUUCGUACCAUAGAGAGACGUUAUCCGCUCACCGAGAUCGGAAGAGCACACGU
B25: target 1 insG 3' of 22,insG 3' of 16 (mixed)
RNA 1: CACCCGUGCAAAAAUGCAGGGGUCUAAAACUGAGCGGAUAACCUCUCUAUGG
RNA 2: GGGAAUGGAUCCACAUCUACGAAUUCGUACGCAUAGAGGAGGUUAUCCGCUCACCGAGAUCGGAAGAGCACACGU
B26: target 1 insA 3' of 12,insC 3' of 1 (mixed)
RNA 1: CACCCGUGCAAAAAUGCAGGGGUCUAAAACUGAGCGGAUAACCUCUCUAUGG
RNA 2: GGGAAUGGAUCCACAUCUACGAAUUCGUACCAUAGAGAGGAUUAUCCGCUCACCCGAGAUCGGAAGAGCACACGU
B27: target 1 U11C,C21A (mixed)
RNA 1: CACCCGUGCAAAAAUGCAGGGGUCUAAAACUGAGCGGAUAACCUCUCUAUGG
RNA 2: GGGAAUGGAUCCACAUCUACGAAUUCGUACAAUAGAGAGGCUAUCCGCUCACCGAGAUCGGAAGAGCACACGU
B28: target 1 insG 3' of 22,insA 3' of 22 (mixed)
RNA 1: CACCCGUGCAAAAAUGCAGGGGUCUAAAACUGAGCGGAUAACCUCUCUAUGG
RNA 2: GGGAAUGGAUCCACAUCUACGAAUUCGUACGACAUAGAGAGGUUAUCCGCUCACCGAGAUCGGAAGAGCACACGU

Target: T1, EsCas13d, nuclease-dead
Assay: crRNA (strand 1, pre-loaded); Mg2+; 40 mM Tris-HCl pH 7.5, 150 mM NaCl, 6 mM MgCl2, 1 mM DTT, 0.1% Tween-20, 0.2 mg/ml BSA; 25 C; 10 min per concentration, then washed
Conditions: tags: His6-TwinStrep-SUMO cleaved; N-terminal SNAP kept (SNAP-Surface 488); label: 3' end held by stalled T7 RNA polymerase

Compared with B1, B2 is 2-fold higher in Kd: 39.3 ± 2.6 nM for the first, 80 ± 32 nM for the second. The first binds more tightly here.

Going from B3 to B4, the Kd falls from 44.9 ± 3.5 nM to 7.1 ± 0.4 nM (6.3-fold).

Going from B5 to B6, the Kd falls from 52 ± 23 nM to 15.2 ± 0.6 nM (3.4-fold). The second binds more tightly here.

Compared with B7, B8 is 3.3-fold lower in Kd: 51 ± 7 nM for the first, 15.3 ± 1 nM for the second.

Compared with B9, B10 is 2.5-fold higher in Kd: 11.7 ± 1.6 nM for the first, 29.7 ± 2.9 nM for the second. The first binds more tightly here.

Compared with B11, B12 is 1.7-fold higher in Kd: 9.9 ± 0.4 nM for the first, 16.4 ± 0.8 nM for the second. The first binds more tightly here.

Going from B13 to B14, the Kd falls from 20.8 ± 1 nM to 9.6 ± 0.6 nM (2.2-fold). The second binds more tightly here.

First: B15
Second: B16
The Kd of the first is 2.4-fold higher: roughly 80 nM for the first, 34 ± 4 nM for the second. The second binds more tightly here.

Going from B17 to B18, the Kd falls from 34.2 ± 3.1 nM to 12.6 ± 0.6 nM (2.7-fold).

First: B19
Second: B20
The Kd of the first is 2.6-fold higher: 9.26 ± 0.34 nM for the first, 3.51 ± 0.18 nM for the second. The second binds more tightly here.

Compared with B21, B22 is 1.9-fold lower in Kd: 13.2 ± 1 nM for the first, 6.8 ± 0.4 nM for the second. The second binds more tightly here.

B23 and B24 are within error of each other in Kd: 28.9 ± 3.1 nM for the first, 23 ± 5 nM for the second.

First: B25
Second: B26
The Kd of the first is 2.1-fold higher: 57 ± 8 nM for the first, 27.4 ± 2.6 nM for the second.

First: B27
Second: B28
The Kd of the first is 1.7-fold higher: 51 ± 6 nM for the first, 30.8 ± 2.9 nM for the second. The second binds more tightly here.

— publication PMC10786891, “Massively parallel profiling of RNA-targeting CRISPR-Cas13d”
